{
  "source": "patent US20170044241A1",
  "about": "(VYBION, published 2017)",
  "key": {"[1]": {"molecular_target": "T1, biotinylated Huntingtin peptide Happ(+) (RPQLPQPPPQAQPRGGGSK-biotin)", "T1 construct": "also called biotinylated PRP; poly-proline peptide", "T1 peptide": "RPQLPQPPPQAQPRGGGSK-biotin", "experiment": "ELISA, purified intrabody on poly-proline peptides (FIG. 1C)", "procedure": "(§1) ELISA was performed to determine the binding activity of isolated scFv clones against biotinylated Huntingtin peptide designated Happ(+) ([…]-biotin (SEQ ID NO: 26), and a second biotinylated Huntingtin peptide designated Happ(−) ([…]-biotin (SEQ ID NO: 28). All incubations except antigen coating were carried out at room temperature. Microtiter plates (Nuc) were coated with 100 μl of a biotinlyated Huntingtin peptide solution (2 μg/ml in 50 mM NaHCO3 buffer, pH 9.6) and incubated overnight at 4° C. The plates were washed 3 times with 200 μl of 1×TBS (50 mM Tris-Cl, 150 mM NaCl pH 8.0) and blocked with 100 μl of 2% milk in TBS for 2 hr. Plates were washed once with 200 μl of 1×TBS. In some experiments, preblocked Strepavidin coated plates (Pierce) were used to bind biotinylated peptide. Cell extracts (50 μl) or purified StrepII tagged Intrabodies were added to the antigen-coated blocked plates and incubated for 1.5 hr. Extracts of E. coli cultures from individual colonies selected by panning after overnight induction with IPTG were prepared by lysis in B-Per (Pierce) as described by the manufacturer and centrifuged at 10,000×g for 10 minutes to remove cell wall and debris. Supernatants from these extracts were used directly or diluted with TBS (1:2, 1:4) prior to use. […] The optical density (OD) was measured at 405 nm on a spectrophotometer and the level of scFv binding determined. […]"}, "[2]": {"molecular_target": "T2, biotinylated Huntingtin peptide Happ(-) (PGPAVAEEPLHRPG-biotin)", "T2 construct": "also called second biotinylated proline rich peptide; carboxy derived Huntington's peptide", "T2 peptide": "PGPAVAEEPLHRPG-biotin", "experiment": "ELISA, purified intrabody on poly-proline peptides (FIG. 1C)", "procedure": "as §1"}, "[3]": {"molecular_target": "T2, biotinylated Huntingtin peptide Happ(-) …", "experiment": "ELISA, purified intrabody on poly-proline peptides (FIG. 1A)", "procedure": "as §1"}, "[4]": {"molecular_target": "T1, biotinylated Huntingtin peptide Happ(+) …", "experiment": "ELISA, purified scFv on biotinylated peptide", "procedure": "as §1"}, "[5]": {"molecular_target": "T1, biotinylated Huntingtin peptide Happ(+) …", "experiment": "ELISA, purified intrabody on poly-proline peptides (FIG. 1B)", "procedure": "as §1"}, "[6]": {"molecular_target": "T2, biotinylated Huntingtin peptide Happ(-) …", "experiment": "ELISA, purified intrabody on poly-proline peptides (FIG. 1B)", "procedure": "as §1"}, "[7]": {"molecular_target": "T1, biotinylated Huntingtin peptide Happ(+) …", "experiment": "ELISA, H8 in E. coli lysate against purified H8; peptide not given"}, "[8]": {"molecular_target": "T2, biotinylated Huntingtin peptide Happ(-) …", "experiment": "ELISA, H8 in E. coli lysate against purified H8; peptide not given"}},
  "note": "No end group written: not given here. biotin = biotin label at C-terminus",
  "data": [
    {"binder": "E10 (scFv, Single chain intrabody; purified with a carboxy terminal StrepII tag for the ELISA; not shown: carboxy terminal StrepII tag of the purified form (pET24)) scFv: MAEVQLVVSGGGLVKPGGSMILSCAASGFTFSNYSMNWVRQAPGKGLEWVSSISSSSEYIYYADFVKGRFTISRDNAKNSLYLQMDSLRAEDTAVYYCAITGCECTWGRGTLVTVSSGGGGSGGGGSGGGGSQSVLTQPASVSGSPGQSITISCAGTSSDVGGYNYVSWYQQHPGKAPKLMIYEDSKRPSGVSNRFSGSKSGNTASLTISGLRAEDEADYYCSCIRGLKAAYFGGGTKLAVLGAAAEQKLIS", "values": [
      {"measurement": "binding result", "setting": "[1]", "value": "binds"},
      {"measurement": "binding result", "setting": "[2]", "value": "binds"}
    ]},
    {"binder": "INT41 (scFv, Single chain intrabody (VH-linker-VL) from the T3 scFv library; Purified from E. coli with a carboxy terminal StrepII tag for the ELISA; also called INT41 intrabody; not shown: carboxy terminal StrepII tag of the purified form (pET24)) scFv: MAEVQLVVSGGGLVKPGGSMILSCAASGFTFSNYSMNWVRQAPGKGLEWVSSISSSSEYIYYADFVKGRFTISRDNAKNSLYLQMDSLRAEDTAVYYCAWPGYRKAWGRGTLVTVSSGGGGSGGGGSGGGGSQSVLTQPASVSGSPGQSITISCAGTSSDVGGYNYVSWYQQHPGKAPKLMIYEDSKRPSGVSNRFSGSKSGNTASLTISGLRAEDEADYYCSYCASKGHWLFGGGTKLAVLGAAAEQKLIS", "values": [
      {"measurement": "binding result", "setting": "[3]", "value": "binds"},
      {"measurement": "binding result", "setting": "[4]", "value": "binds"}
    ]},
    {"binder": "A2 (scFv, Single chain intrabody; purified with a carboxy terminal StrepII tag for the ELISA; not shown: carboxy terminal StrepII tag of the purified form (pET24)) scFv: MAEVQLVVSGGGLVKPGGSMILSCAASGFTFSNYSMNWVRQAPGKGLEWVSSISSSSEYIYYADFVKGRFTISRDNAKNSLYLQMDSLRAEDTAVYYCAHWPRLWRFPLWGRGTLVTVSSGGGGSGGGGSGGGGSQSVLTQPASVSGSPGQSITISCAGTSSDVGGYNYVSWYQQHPGKAPKLMIYEDSKRPSGVSNRFSGSKSGNTASLTISGLRAEDEADYYCVLNMHWANFGGGTKLAVLGAAAEQKLIS", "values": [
      {"measurement": "binding result", "setting": "[5]", "value": "binds"},
      {"measurement": "binding result", "setting": "[6]", "value": "binds"}
    ]},
    {"binder": "H8 (scFv, Single chain intrabody; tested purified (StrepII tag) and also in E. coli lysate form; not shown: carboxy terminal StrepII tag of the purified form (pET24)) scFv: MAEVQLVVSGGGLVKPGGSMILSCAASGFTFSNYSMNWVRQAPGKGLEWVSSISSSSEYIYYADFVKGRFTISRDNAKNSLYLQMDSLRAEDTAVYYCAAAVCNGRPDTWGRGTLVTVSSGGGGSGGGGSGGGGSQSVLTQPASVSGSPGQSITISCAGTSSDVGGYNYVSWYQQHPGKAPKLMIYEDSKRPSGVSNRFSGSKSGNTASLTISGLRAEDEADYYCGYSLLPVLFGGGTKLAVLGAAAEQKLIS", "values": [
      {"measurement": "fold signal, lysate form against purified form", "setting": "[7]", "value": 3, "unit": "times"},
      {"measurement": "fold signal, lysate form against purified form", "setting": "[8]", "value": 3, "unit": "times"}
    ]}
  ]
}
